The values that follow come from patent US20230357348A1 (AstraZeneca / MedImmune, published 2023).

The target in test [1] is human glucagon receptor (hGCGR) (human, UniProt P47871 26-477). Nature of the test: cell-based or functional assay.
The target of test [2] is human GLP-1 receptor (hGLP-1R) (human, UniProt P43220 24-463). Nature of the test: cell-based or functional assay.

Starred links: 1 amine or outer side, 2 acyl side, 3 side chain; linkers in the order of their positions; H or OH if unused. Non-standard residues stand in square brackets, D forms with d. Groups on a side chain read outwards from the residue. No end group written: not given here. *: point of attachment. C20 diacid = O=C(O)CCCCCCCCCCCCCCCCCCC(=O)*; C18 diacid = O=C(O)CCCCCCCCCCCCCCCCC(=O)*; γGlu = O=C(O)[C@H](CCC(=O)[*:2])N[*:1]; αMeF = C[C@](N)(Cc1ccccc1)C(=O)O; AEEA = NCCOCCOCC(=O)O; Aib = CC(C)(N)C(=O)O

human glucagon receptor (hGCGR), sequence (P47871 26-477): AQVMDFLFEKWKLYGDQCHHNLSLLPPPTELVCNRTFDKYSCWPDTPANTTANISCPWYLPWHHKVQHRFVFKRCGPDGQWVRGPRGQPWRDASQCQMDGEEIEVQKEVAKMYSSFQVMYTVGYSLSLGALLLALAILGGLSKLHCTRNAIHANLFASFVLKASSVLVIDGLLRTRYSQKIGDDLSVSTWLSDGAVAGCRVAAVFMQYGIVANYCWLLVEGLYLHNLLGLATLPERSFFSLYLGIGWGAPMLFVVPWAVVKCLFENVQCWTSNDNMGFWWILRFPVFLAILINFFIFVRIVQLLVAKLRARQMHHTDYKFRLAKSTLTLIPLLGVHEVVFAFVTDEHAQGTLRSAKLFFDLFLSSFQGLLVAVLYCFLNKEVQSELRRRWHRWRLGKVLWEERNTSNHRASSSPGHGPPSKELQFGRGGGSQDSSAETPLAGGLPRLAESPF

B1: Peptide 472 (peptide)
peptide: H[Aib]QGTFTSDVSK[αMeF]LDKK([AEEA-AEEA-γGlu-C18 diacid])RARDFVQWLL[Aib]E-NH2
modifications: N-terminus assumed
SMILES: CC(C)C[C@H](NC(=O)[C@H](Cc1c[nH]c2ccccc12)NC(=O)[C@H](CCC(N)=O)NC(=O)[C@@H](NC(=O)[C@H](Cc1ccccc1)NC(=O)[C@H](CC(=O)O)NC(=O)[C@H](CCCNC(=N)N)NC(=O)[C@H](C)NC(=O)[C@H](CCCNC(=N)N)NC(=O)[C@H](CCCCNC(=O)COCCOCCNC(=O)COCCOCCNC(=O)CC[C@H](NC(=O)CCCCCCCCCCCCCCCCC(=O)O)C(=O)O)NC(=O)[C@H](CCCCN)NC(=O)[C@H](CC(=O)O)NC(=O)[C@H](CC(C)C)NC(=O)[C@](C)(Cc1ccccc1)NC(=O)[C@H](CCCCN)NC(=O)[C@H](CO)NC(=O)[C@@H](NC(=O)[C@H](CC(=O)O)NC(=O)[C@H](CO)NC(=O)[C@@H](NC(=O)[C@H](Cc1ccccc1)NC(=O)[C@@H](NC(=O)CNC(=O)[C@H](CCC(N)=O)NC(=O)C(C)(C)NC(=O)[C@@H](N)Cc1c[nH]cn1)[C@@H](C)O)[C@@H](C)O)C(C)C)C(C)C)C(=O)N[C@@H](CC(C)C)C(=O)NC(C)(C)C(=O)N[C@@H](CCC(=O)O)C(N)=O
As to B1, the “hGluc-R EC50 (pM)” value in test [1] came to 11.1 pM. The “hGLP-1R EC50 (pM)” value in test [2] amounted to 7.63 pM.

B2: Peptide 468 (peptide)
peptide: H[Aib]QGTFTSDVSK[αMeF]LDTK([AEEA-AEEA-γGlu-γGlu-C18 diacid])RAQDFVQWLLE[Aib]G-NH2
Consider B2, for which the “hGluc-R EC50 (pM)” value in test [1] worked out at 292 pM. Also, the “hGLP-1R EC50 (pM)” value in test [2] is 67.5 pM.

B3: Peptide 469 (peptide)
peptide: H[Aib]QGTFTSDVSK[αMeF]LDTK([AEEA-AEEA-γGlu-γGlu-C20 diacid])RAQDFVQWLLE[Aib]G-NH2
modifications: N-terminus assumed
SMILES: CC(C)C[C@H](NC(=O)[C@H](Cc1c[nH]c2ccccc12)NC(=O)[C@H](CCC(N)=O)NC(=O)[C@@H](NC(=O)[C@H](Cc1ccccc1)NC(=O)[C@H](CC(=O)O)NC(=O)[C@H](CCC(N)=O)NC(=O)[C@H](C)NC(=O)[C@H](CCCNC(=N)N)NC(=O)[C@H](CCCCNC(=O)COCCOCCNC(=O)COCCOCCNC(=O)CC[C@H](NC(=O)CC[C@H](NC(=O)CCCCCCCCCCCCCCCCCCC(=O)O)C(=O)O)C(=O)O)NC(=O)[C@@H](NC(=O)[C@H](CC(=O)O)NC(=O)[C@H](CC(C)C)NC(=O)[C@](C)(Cc1ccccc1)NC(=O)[C@H](CCCCN)NC(=O)[C@H](CO)NC(=O)[C@@H](NC(=O)[C@H](CC(=O)O)NC(=O)[C@H](CO)NC(=O)[C@@H](NC(=O)[C@H](Cc1ccccc1)NC(=O)[C@@H](NC(=O)CNC(=O)[C@H](CCC(N)=O)NC(=O)C(C)(C)NC(=O)[C@@H](N)Cc1c[nH]cn1)[C@@H](C)O)[C@@H](C)O)C(C)C)[C@@H](C)O)C(C)C)C(=O)N[C@@H](CC(C)C)C(=O)N[C@@H](CCC(=O)O)C(=O)NC(C)(C)C(=O)NCC(N)=O
On to B3, for which the “hGluc-R EC50 (pM)” value in test [1] worked out at 538 pM. Further, the “hGLP-1R EC50 (pM)” value in test [2] worked out at 255 pM.

B4: Peptide 466 (peptide)
peptide: H[Aib]QGTFTSDVSK[αMeF]LDTK([AEEA-AEEA-γGlu-C18 diacid])RAQDFVQWLLE[Aib]G-NH2
modifications: N-terminus assumed
SMILES: CC(C)C[C@H](NC(=O)[C@H](Cc1c[nH]c2ccccc12)NC(=O)[C@H](CCC(N)=O)NC(=O)[C@@H](NC(=O)[C@H](Cc1ccccc1)NC(=O)[C@H](CC(=O)O)NC(=O)[C@H](CCC(N)=O)NC(=O)[C@H](C)NC(=O)[C@H](CCCNC(=N)N)NC(=O)[C@H](CCCCNC(=O)COCCOCCNC(=O)COCCOCCNC(=O)CC[C@H](NC(=O)CCCCCCCCCCCCCCCCC(=O)O)C(=O)O)NC(=O)[C@@H](NC(=O)[C@H](CC(=O)O)NC(=O)[C@H](CC(C)C)NC(=O)[C@](C)(Cc1ccccc1)NC(=O)[C@H](CCCCN)NC(=O)[C@H](CO)NC(=O)[C@@H](NC(=O)[C@H](CC(=O)O)NC(=O)[C@H](CO)NC(=O)[C@@H](NC(=O)[C@H](Cc1ccccc1)NC(=O)[C@@H](NC(=O)CNC(=O)[C@H](CCC(N)=O)NC(=O)C(C)(C)NC(=O)[C@@H](N)Cc1c[nH]cn1)[C@@H](C)O)[C@@H](C)O)C(C)C)[C@@H](C)O)C(C)C)C(=O)N[C@@H](CC(C)C)C(=O)N[C@@H](CCC(=O)O)C(=O)NC(C)(C)C(=O)NCC(N)=O
In the case of B4, the “hGluc-R EC50 (pM)” value in test [1] was determined as 131 pM. Moreover, in test [2], the “hGLP-1R EC50 (pM)” value amounted to 35.6 pM.

B5: Peptide 465 (peptide)
peptide: H[Aib]QGTFTSDVSK[αMeF]LDLK([AEEA-AEEA-γGlu-γGlu-C18 diacid])RAQDFVQWLL[Aib]T-OH
modifications: N-terminus assumed
SMILES: CC(C)C[C@H](NC(=O)[C@H](CC(=O)O)NC(=O)[C@H](CC(C)C)NC(=O)[C@](C)(Cc1ccccc1)NC(=O)[C@H](CCCCN)NC(=O)[C@H](CO)NC(=O)[C@@H](NC(=O)[C@H](CC(=O)O)NC(=O)[C@H](CO)NC(=O)[C@@H](NC(=O)[C@H](Cc1ccccc1)NC(=O)[C@@H](NC(=O)CNC(=O)[C@H](CCC(N)=O)NC(=O)C(C)(C)NC(=O)[C@@H](N)Cc1c[nH]cn1)[C@@H](C)O)[C@@H](C)O)C(C)C)C(=O)N[C@@H](CCCCNC(=O)COCCOCCNC(=O)COCCOCCNC(=O)CC[C@H](NC(=O)CC[C@H](NC(=O)CCCCCCCCCCCCCCCCC(=O)O)C(=O)O)C(=O)O)C(=O)N[C@@H](CCCNC(=N)N)C(=O)N[C@@H](C)C(=O)N[C@@H](CCC(N)=O)C(=O)N[C@@H](CC(=O)O)C(=O)N[C@@H](Cc1ccccc1)C(=O)N[C@H](C(=O)N[C@@H](CCC(N)=O)C(=O)N[C@@H](Cc1c[nH]c2ccccc12)C(=O)N[C@@H](CC(C)C)C(=O)N[C@@H](CC(C)C)C(=O)NC(C)(C)C(=O)N[C@H](C(=O)O)[C@@H](C)O)C(C)C
Take B5: in test [1], the “hGluc-R EC50 (pM)” value was 436 pM. Besides, the “hGLP-1R EC50 (pM)” value in test [2] is 485 pM.

B6: Peptide 473 (peptide)
peptide: H[Aib]QGTFTSDVSK[αMeF]LDRK([AEEA-AEEA-γGlu-C18 diacid])RARDFVQWLL[Aib]E-NH2
modifications: N-terminus assumed
SMILES: CC(C)C[C@H](NC(=O)[C@H](Cc1c[nH]c2ccccc12)NC(=O)[C@H](CCC(N)=O)NC(=O)[C@@H](NC(=O)[C@H](Cc1ccccc1)NC(=O)[C@H](CC(=O)O)NC(=O)[C@H](CCCNC(=N)N)NC(=O)[C@H](C)NC(=O)[C@H](CCCNC(=N)N)NC(=O)[C@H](CCCCNC(=O)COCCOCCNC(=O)COCCOCCNC(=O)CC[C@H](NC(=O)CCCCCCCCCCCCCCCCC(=O)O)C(=O)O)NC(=O)[C@H](CCCNC(=N)N)NC(=O)[C@H](CC(=O)O)NC(=O)[C@H](CC(C)C)NC(=O)[C@](C)(Cc1ccccc1)NC(=O)[C@H](CCCCN)NC(=O)[C@H](CO)NC(=O)[C@@H](NC(=O)[C@H](CC(=O)O)NC(=O)[C@H](CO)NC(=O)[C@@H](NC(=O)[C@H](Cc1ccccc1)NC(=O)[C@@H](NC(=O)CNC(=O)[C@H](CCC(N)=O)NC(=O)C(C)(C)NC(=O)[C@@H](N)Cc1c[nH]cn1)[C@@H](C)O)[C@@H](C)O)C(C)C)C(C)C)C(=O)N[C@@H](CC(C)C)C(=O)NC(C)(C)C(=O)N[C@@H](CCC(=O)O)C(N)=O
On to B6, for which the “hGluc-R EC50 (pM)” value in test [1] worked out at 14.1 pM. For the same molecule, in test [2], the “hGLP-1R EC50 (pM)” value amounted to 11.5 pM.

B7: Peptide 470 (peptide)
peptide: H[Aib]QGTFTSDVSK[αMeF]LDKK([AEEA-AEEA-γGlu-C20 diacid])RARDFVQWLL[Aib]E-NH2
modifications: N-terminus assumed
SMILES: CC(C)C[C@H](NC(=O)[C@H](Cc1c[nH]c2ccccc12)NC(=O)[C@H](CCC(N)=O)NC(=O)[C@@H](NC(=O)[C@H](Cc1ccccc1)NC(=O)[C@H](CC(=O)O)NC(=O)[C@H](CCCNC(=N)N)NC(=O)[C@H](C)NC(=O)[C@H](CCCNC(=N)N)NC(=O)[C@H](CCCCNC(=O)COCCOCCNC(=O)COCCOCCNC(=O)CC[C@H](NC(=O)CCCCCCCCCCCCCCCCCCC(=O)O)C(=O)O)NC(=O)[C@H](CCCCN)NC(=O)[C@H](CC(=O)O)NC(=O)[C@H](CC(C)C)NC(=O)[C@](C)(Cc1ccccc1)NC(=O)[C@H](CCCCN)NC(=O)[C@H](CO)NC(=O)[C@@H](NC(=O)[C@H](CC(=O)O)NC(=O)[C@H](CO)NC(=O)[C@@H](NC(=O)[C@H](Cc1ccccc1)NC(=O)[C@@H](NC(=O)CNC(=O)[C@H](CCC(N)=O)NC(=O)C(C)(C)NC(=O)[C@@H](N)Cc1c[nH]cn1)[C@@H](C)O)[C@@H](C)O)C(C)C)C(C)C)C(=O)N[C@@H](CC(C)C)C(=O)NC(C)(C)C(=O)N[C@@H](CCC(=O)O)C(N)=O
B7: the “hGluc-R EC50 (pM)” value in test [1] came out at 30.3 pM. The “hGLP-1R EC50 (pM)” value in test [2] was 55.9 pM.

B8: Peptide 462 (peptide)
peptide: H[Aib]QGTFTSDVSK[αMeF]LDTK([AEEA-AEEA-γGlu-C18 diacid])RARDFVQWLLEAG-OH
modifications: N-terminus assumed
SMILES: CC(C)C[C@H](NC(=O)[C@H](CC(C)C)NC(=O)[C@H](Cc1c[nH]c2ccccc12)NC(=O)[C@H](CCC(N)=O)NC(=O)[C@@H](NC(=O)[C@H](Cc1ccccc1)NC(=O)[C@H](CC(=O)O)NC(=O)[C@H](CCCNC(=N)N)NC(=O)[C@H](C)NC(=O)[C@H](CCCNC(=N)N)NC(=O)[C@H](CCCCNC(=O)COCCOCCNC(=O)COCCOCCNC(=O)CC[C@H](NC(=O)CCCCCCCCCCCCCCCCC(=O)O)C(=O)O)NC(=O)[C@@H](NC(=O)[C@H](CC(=O)O)NC(=O)[C@H](CC(C)C)NC(=O)[C@](C)(Cc1ccccc1)NC(=O)[C@H](CCCCN)NC(=O)[C@H](CO)NC(=O)[C@@H](NC(=O)[C@H](CC(=O)O)NC(=O)[C@H](CO)NC(=O)[C@@H](NC(=O)[C@H](Cc1ccccc1)NC(=O)[C@@H](NC(=O)CNC(=O)[C@H](CCC(N)=O)NC(=O)C(C)(C)NC(=O)[C@@H](N)Cc1c[nH]cn1)[C@@H](C)O)[C@@H](C)O)C(C)C)[C@@H](C)O)C(C)C)C(=O)N[C@@H](CCC(=O)O)C(=O)N[C@@H](C)C(=O)NCC(=O)O
As for B8, in test [1], the “hGluc-R EC50 (pM)” value was 89.2 pM. Besides, the “hGLP-1R EC50 (pM)” value in test [2] came to 39.5 pM.

B9: Peptide 471 (peptide)
peptide: H[Aib]QGTFTSDVSK[αMeF]LDRK([AEEA-AEEA-γGlu-C20 diacid])RARDFVQWLL[Aib]E-NH2
Turning to B9, in test [1], the “hGluc-R EC50 (pM)” value was found to be 63.6 pM. For the same molecule, the “hGLP-1R EC50 (pM)” value in test [2] was 102 pM.
